# Reference: patent US20120034160A1 (AbbVie / Abbott, published 2012)
# Substitutions are numbered along the chain they refer to.
# T1: Recombinant Human IL-17 (human, UniProt Q16552 20-155, limits assumed)
# T1 sequence (looked up): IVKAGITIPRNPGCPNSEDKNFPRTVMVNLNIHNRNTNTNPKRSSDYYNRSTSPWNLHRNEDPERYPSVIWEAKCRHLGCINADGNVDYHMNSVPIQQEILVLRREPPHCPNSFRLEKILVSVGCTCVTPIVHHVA
# B1: DVD1282 (bispecific antibody, human IgG1, kappa)
# heavy: not shown
# light: DIQMTQSPSSLSASVGDRVTITCRASGNIHNYLTWYQQTPGKAPKLLIYNAKTLADGVPSRFSGSGSGTDYTFTISSLQPEDIATYYCQHFWSIPYTFGQGTKLQITRTVAAPEIVLTQSPDFQSVTPKEKVTITCRASQNIGSELHWYQQKPDQSPKLLIKYASHSISGVPSRFSGSGSGTDFTLTINGLEAEDAATYYCHQSDTLPHTFGQGTKVDIKRTVAAPSVFIFPPSDEQLKSGTASVVCLLNNFYPREAKVQWKVDNALQSGNSQESVTEQDSKDSTYSLSSTLTLSKADYEKHKVYACEVTHQGLSSPVTKSFNRGEC
# B2: DVD1284 (bispecific antibody, human IgG1, kappa)
# heavy: not shown
# light: B1 light
# B3: DVD1277 (bispecific antibody, human IgG1, kappa)
# heavy: not shown
# light: EIVLTQSPDFQSVTPKEKVTITCRASQDIGSELHWYQQKPDQPPKLLIKYASHSTSGVPSRFSGSGSGTDFTLTINGLEAEDAGTYYCHQTDSLPYTFGPGTKVDIKRTVAAPDTQVTQSPSSLSASVGDRVTITCITSTDIDVDMNWYQQKPGKPPKLLISQGNTLRPGVPSRFSSSGSGTDFTFTISSLQPEDFATYYCLQSDNLPLTFGQGTKLEIKRTVAAPSVFIFPPSDEQLKSGTASVVCLLNNFYPREAKVQWKVDNALQSGNSQESVTEQDSKDSTYSLSSTLTLSKADYEKHKVYACEVTHQGLSSPVTKSFNRGEC
# B4: DVD1291 (bispecific antibody, human IgG1, kappa)
# heavy: not shown
# light: B3 light with D28N, P43S, T55I, G84A, T91S, S93T, Y96H, P100Q, D114E, Q116T
# B5: DVD1287 (bispecific antibody, human IgG1, kappa)
# heavy: not shown
# light: B3 light with D28N, P43S, T55I, G84A, T91S, S93T, Y96H, P100Q
# B6: DVD1281 (bispecific antibody, human IgG1, kappa)
# heavy: not shown
# light: B3 light with D114E, Q116T
# B7: DVD1280 (bispecific antibody, human IgG1, kappa)
# heavy: not shown
# light: ETTVTQSPSSLSASVGDRVTITCITSTDIDVDMNWYQQKPGKPPKLLISQGNTLRPGVPSRFSSSGSGTDFTFTISSLQPEDFATYYCLQSDNLPLTFGQGTKLEIKRTVAAPEIVLTQSPDFQSVTPKEKVTITCRASQDIGSELHWYQQKPDQPPKLLIKYASHSTSGVPSRFSGSGSGTDFTLTINGLEAEDAGTYYCHQTDSLPYTFGPGTKVDIKRTVAAPSVFIFPPSDEQLKSGTASVVCLLNNFYPREAKVQWKVDNALQSGNSQESVTEQDSKDSTYSLSSTLTLSKADYEKHKVYACEVTHQGLSSPVTKSFNRGEC
# B8: DVD1286 (bispecific antibody, human IgG1, kappa)
# heavy: not shown
# light: B7 light with E1D, T3Q, D141N, P156S, T168I, G197A, T204S, S206T, Y209H, P213Q
# B9: DVD1290 (bispecific antibody, human IgG1, kappa)
# heavy: not shown
# light: B7 light with D141N, P156S, T168I, G197A, T204S, S206T, Y209H, P213Q
# B10: DVD1278 (bispecific antibody, human IgG1, kappa)
# heavy: not shown
# light: DTVVTQSPAFLSVTPGEKVTITCITSTDIDVDMNWYQQKPDQPPKLLISQGNTLRPGVPSRFSSSGSGTDFTFTISSLEAEDAATYYCLQSDNLPLTFGQGTKLEIKRTVAAPEIVLTQSPDFQSVTPKEKVTITCRASQDIGSELHWYQQKPDQPPKLLIKYASHSTSGVPSRFSGSGSGTDFTLTINGLEAEDAGTYYCHQTDSLPYTFGPGTKVDIKRTVAAPSVFIFPPSDEQLKSGTASVVCLLNNFYPREAKVQWKVDNALQSGNSQESVTEQDSKDSTYSLSSTLTLSKADYEKHKVYACEVTHQGLSSPVTKSFNRGEC
# B11: DVD1288 (bispecific antibody, human IgG1, kappa)
# heavy: not shown
# light: B10 light with D141N, P156S, T168I, G197A, T204S, S206T, Y209H, P213Q
# B12: DVD1279 (bispecific antibody, human IgG1, kappa)
# heavy: not shown
# light: EIVLTQSPDFQSVTPKEKVTITCRASQDIGSELHWYQQKPDQPPKLLIKYASHSTSGVPSRFSGSGSGTDFTLTINGLEAEDAGTYYCHQTDSLPYTFGPGTKVDIKRTVAAPDTVVTQSPAFLSVTPGEKVTITCITSTDIDVDMNWYQQKPDQPPKLLISQGNTLRPGVPSRFSSSGSGTDFTFTISSLEAEDAATYYCLQSDNLPLTFGQGTKLEIKRTVAAPSVFIFPPSDEQLKSGTASVVCLLNNFYPREAKVQWKVDNALQSGNSQESVTEQDSKDSTYSLSSTLTLSKADYEKHKVYACEVTHQGLSSPVTKSFNRGEC
# B13: DVD1289 (bispecific antibody, human IgG1, kappa)
# heavy: not shown
# light: B12 light with D28N, P43S, T55I, G84A, T91S, S93T, Y96H, P100Q
# B14: DVD1283 (bispecific antibody, human IgG1, kappa)
# heavy: not shown
# light: EIVLTQSPDFQSVTPKEKVTITCRASQNIGSELHWYQQKPDQSPKLLIKYASHSISGVPSRFSGSGSGTDFTLTINGLEAEDAATYYCHQSDTLPHTFGQGTKVDIKRTVAAPDIQMTQSPSSLSASVGDRVTITCRASGNIHNYLTWYQQTPGKAPKLLIYNAKTLADGVPSRFSGSGSGTDYTFTISSLQPEDIATYYCQHFWSIPYTFGQGTKLQITRTVAAPSVFIFPPSDEQLKSGTASVVCLLNNFYPREAKVQWKVDNALQSGNSQESVTEQDSKDSTYSLSSTLTLSKADYEKHKVYACEVTHQGLSSPVTKSFNRGEC
# B15: DVD1285 (bispecific antibody, human IgG1, kappa)
# heavy: not shown
# light: B14 light
# Molecular target: Recombinant Human IL-1β (human, UniProt P01584 117-269)
# Assay: cell-based or functional assay
N-Terminal VD IL-1β Neutralization Assay EC50,C-Terminal VD IL-1β Neutralization Assay EC50,Binder
0.0091 nM,,B1
0.0065 nM,,B2
,> 20 nM,B3
,> 100 nM,B4
,> 50 nM,B5
,> 150 nM,B6
0.149 nM,,B7
0.165 nM,,B8
0.252 nM,,B9
0.145 nM,,B10
0.212 nM,,B11
,> 200 nM,B12
,18.8 nM,B13
,7.61 nM,B14
,1.27 nM,B15

# Molecular target: T1, Recombinant Human IL-17
# Assay: cell-based or functional assay
C-terminal VD IL-17 Neutralization Assay EC50,N-terminal VD IL-17 Neutralization Assay EC50,Binder
> 20 nM,,B1
> 20 nM,,B2
,0.0092 nM,B3
,0.0062 nM,B4
,0.0035 nM,B5
,0.0027 nM,B6
0.256 nM,,B7
0.259 nM,,B8
0.0181 nM,,B9
0.346 nM,,B10
0.111 nM,,B11
,0.0052 nM,B12
,0.096 nM,B13
,0.0238 nM,B14
,0.0021 nM,B15
